The subject of this assay is HCT-8 colorectal adenocarcinoma cell line. Description: Anti-proliferative assay, HCT-8. It is filed as cell-based, human.

B1: Novaferon: novel recombinant non-naturally occurring human interferon-like protein, 166 amino acids (SEQ ID No: 2), from Type I interferon shuffling library, expressed in E. coli (protein)
chain: CNLSQTHSLGSKRTLMLLAQMGKISLFSCLKDRHDFEFPQEEFDGNQFQKAQAISVLHELIQQTFNLFSTKESSAAWDEGLLDKFRTELYRQLNDLEACMMQEVGVEETPLMNADSILAVKKYFQRITLYLMEKKYSPCAWEVVRVEIMRSLSFSTNLQKRLRGKD
B1: the “Fold (Novaferon/HuIFN-α2b), increased tumor cell inhibition” value is 212 fold.
